Measurements taken from patent EP4628507A1.
Like-named read-outs stand apart in the source and are kept apart here. Blank lines part the entries; values can stand above or below the substance they belong to.

Legend:
[1] = target: human CD16A-V176 on CHO / CHO-K1 cells (human) (UniProt P08637); test: flow cytometry on CHO-K1-CD16A V176 cells
[2] = target: human CLDN18.2 on cells (NUGC4-hi18.2 cells; SNU601 cells in the ADCC assay) (human) (UniProt P56856); test: flow cytometry on NUGC4-hi18.2 cells
[3] = target: human 4-1BB on the surface of HEK293-Hu4-1BB cells (human) (UniProt Q07011); test: flow cytometry on HEK293-Hu4-1BB cells, isotype control
Sequence of human 4-1BB on the surface of HEK293-Hu4-1BB cells (human) (Q07011 24-255): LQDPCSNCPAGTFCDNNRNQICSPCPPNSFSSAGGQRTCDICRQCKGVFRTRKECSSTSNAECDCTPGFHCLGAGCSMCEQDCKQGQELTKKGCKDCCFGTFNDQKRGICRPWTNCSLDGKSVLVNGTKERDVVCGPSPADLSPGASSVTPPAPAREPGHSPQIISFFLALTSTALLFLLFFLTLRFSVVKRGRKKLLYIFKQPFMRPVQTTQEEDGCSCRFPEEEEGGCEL

[4] = target: human 4-1BB on the surface of HEK293-Hu4-1BB cells (human) (UniProt Q07011); test: cell-based or functional assay
[5] = target: human CD16A-V176 on CHO / CHO-K1 cells (human) (UniProt P08637); test: flow cytometry on CHO-K1-CD16A V176 cells, isotype control
[6] = target: human 4-1BB on the surface of HEK293-Hu4-1BB cells (human) (UniProt Q07011); test: flow cytometry on HEK293-Hu4-1BB cells, isotype control; remark: listed apart in the source
[7] = target: human CLDN18.2 on cells (NUGC4-hi18.2 cells; SNU601 cells in the ADCC assay) (human) (UniProt P56856); test: flow cytometry on NUGC4-hi18.2 cells, isotype control
[8] = target: human 4-1BB on the surface of HEK293-Hu4-1BB cells (human) (UniProt Q07011); test: cell-based or functional assay; remark: listed apart in the source
[9] = target: human CLDN18.2 on cells (NUGC4-hi18.2 cells; SNU601 cells in the ADCC assay) (human) (UniProt P56856); test: cell-based or functional assay
[10] = target: human 4-1BB on the surface of HEK293-Hu4-1BB cells (human) (UniProt Q07011); test: flow cytometry on HEK293-Hu4-1BB cells, isotype control; remark: listed apart in the source

Sequence of human CD16A-V176 on CHO / CHO-K1 cells (human) (P08637 17-254 F176V): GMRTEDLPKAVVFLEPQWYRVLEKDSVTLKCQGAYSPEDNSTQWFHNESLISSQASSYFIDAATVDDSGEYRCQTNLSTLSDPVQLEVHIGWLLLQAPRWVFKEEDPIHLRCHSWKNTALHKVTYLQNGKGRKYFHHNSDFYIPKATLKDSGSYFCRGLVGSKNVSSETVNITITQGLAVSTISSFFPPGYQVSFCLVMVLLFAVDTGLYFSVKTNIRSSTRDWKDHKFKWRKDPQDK

Maximal fluorescence value [1]: 113 | EC50 [2]: 16.2 nM | Maximal fluorescence value [2]: 89300
Substance: TJ-CD4B (bispecific antibody)

EC50 [1]: 14.8 nM | Maximal fluorescence value [1]: 3390
Substance: IMAB362 (antibody)

Maximal fluorescence value [3]: 106 | Fold change in Emax, 4-1BB/NF-κB luciferase reporter, CLDN18.2 cross-linking [4]: 1.15 fold | Fold change in Emax, 4-1BB/NF-κB luciferase reporter, no cross-linking [4]: 1.17 fold | Maximal fluorescence value [5]: 1590 | Maximal fluorescence value [6]: 123 | Maximal fluorescence value [7]: 107 | Emax, 4-1BB/NF-κB luciferase reporter, FcγRIIb cross-linking (relative to the antibody-free group) [8]: 1.12 | Emax, 4-1BB/NF-κB luciferase reporter, no FcγRIIb cross-linking (relative to the antibody-free group) [8]: 1.1 | Fold change in Emax, 4-1BB/NF-κB luciferase reporter, CLDN18.2 cross-linking [8]: 1.17 fold | Fold change in Emax, 4-1BB/NF-κB luciferase reporter, no CLDN18.2 cross-linking [8]: 1.16 fold | ADCP maximum phagocytosis rate, macrophages against NUGC4-hi18.2 cells [9]: 19.8% | Maximal fluorescence value [10]: 67
Substance: isotype IgG1 antibody (control)
ADCC maximum killing rate, NUGC4-hi18.2 target cells, PBMC donor S2001102 (V176) [9]: 21.8% | ADCC maximum killing rate, NUGC4-hi18.2 target cells, PBMC donor SC190061 (F176) [9]: 10.7% | ADCC maximum killing rate, SNU601 target cells, PBMC donor S2001102 (V176) [9]: 22.7% | ADCC maximum killing rate, SNU601 target cells, PBMC donor SC190061 (F176) [9]: 11.4%

Fold change in Emax, 4-1BB/NF-κB luciferase reporter, CLDN18.2 cross-linking [4]: 1.42 fold | Fold change in Emax, 4-1BB/NF-κB luciferase reporter, no cross-linking [4]: 1.13 fold
Substance: ADG106 (antibody)
